Assay results reported in US20240279345A1, “ALPHA 5 BETA 1 INTEGRIN BINDING AGENTS AND USES THEREOF” (PASITHEA THERAPEUTICS CORP., priority 2021, published 2024).
Numbering of substitutions follows the chain as printed.

B1: A2-5D10 (antibody, V domains shown)
VH: QVQLKESGPGLVAPSQSLSITCTISGFSLTSYGVHWVRQPPGKGLEWLVVIWSDGSTTYNSTLKSRLSISKDNSKSQVFLKMNSLQTDDTAMYYCARHYDYDGDWFAYWGQGTLVTVSA
VL: QILLTQSPAIMSASLGERVTMTCTASSSVSSRCLHWYQQKPGSSPKLWIYSTSNLASGVPARFRGSGSGTSYSLTISSMEAEDAATYYCHQYYRSPPTFGGGTKLEIK
notes: mouse hybridoma antibody
B2: A2-7A05 (antibody, V domains shown)
VH: QVQLQQPGAELVKPGASVKLSCKASGYTFTIYWINWVKQRPGQGLEWIGKIYPGSISTDYNEKFKSKATLTVDTSSSTAYMQLSSLTSDDSAVYYCAITGTGGLAYWGQGTLVTVSA
VL: ENVLTQSPAIMSASLGEKVTMTCRASSSVNYMYWYQQKSDASPKLWIYFTSSLAPGVPGRFSGSGSGNSYSLTISTMEGEDAATYYCQQFTTSPFTFGSGTKLEIK
notes: mouse hybridoma antibody; also called A2-7A05 (hybridoma)
B3: A2-7F01 (antibody, V domains shown)
VH: B2 VH with K50N, I56S, D59N, S66T, L104F
VL: B2 VL with T22S, G59T, Y70F, T76S, F90L, T92G, K102R
notes: mouse hybridoma antibody

Experiments:
U87MG cells = test: Cellular detachment of U87MG cells from FN coated plates; format: cell-based; conditions: antibodies 2.0-0.016 μg/mL, cRGD 20-0.16 μM; 1 hour and 3 hours
Procedure: The A-15B08 and A2-7A05 antibodies and cRGD were also tested for their ability to induce dissociation of cellular α5β1 integrin from FN. U87MG cells (HTB-14™, ATCC, Manassas, VA) which were originally derived from a Glioblastoma tumor, are known to express α5β1 integrin, and adhere to FN coated plates. After an overnight incubation on FN coated plates, the U87MG cells formed a loosely packed monolayer and have extended spindle shapes. If the cells are induced to detach from the plates, by trypsin for example, the attachment points are released, and the cells become round. This type of change in morphology was used to assess whether the antibodies and the small molecule inhibitor cRGD can induce U87MG cells to dissociate from FN coated plates.
The following method was used to assess cellular detachment activity: A 96-well cell culture plate (Thermo Fisher Scientific, Waltham, MA, cat. no. 165306) was coated with FN (Human Fibronectin, R&D Systems, Minneapolis, MN 55413, cat. no. 1918-FN) by incubation of 50 uL per well 32 μg/mL FN in 1×PBS for 1 hour at 37° C., then washed 2× with EMEM media (ATCC, Manassas, VA, cat. no. 30-2003) supplemented with 10% Fetal Bovine Serum (FBS; ATCC, Manassas, VA, cat. no. 30-2021). U87MG cells were plated at 20,000 cells per well in EMEM media+10% FBS overnight to allow for maximum adherence. The next day the media was replaced with fresh media that included a 1:5 dilution series of antibodies A-15B08, A2-7A05 or isotype control IgG4 at concentrations of 2.0, 0.4, 0.08 and 0.016 μg/mL or cRGD at 20, 4, 0.8 and 0.16 μM. All tests were run in duplicate. Cell morphology was assessed, and images were captured using a 10× objective of an ECHO Rebel light microscope (ECHO, San Diego, CA).

[1] = biological target: rh-α5β1 protein bound to human FN protein (Homo sapiens, UniProt P05556+P08648); test: SPR dissociation of rh-α5β1 bound to FN; format: biochemical; conditions: 1 μM antibody injected for 250s after 400 nM rh-α5β1; 25° C.
Procedure: Surface Plasmon Resonance (SPR) and a cell-based assay were used to test the effect of the antibodies on the dissociation of rh-α5β1 protein bound to human FN protein. The antibodies tested are representatives of the two groups of antibodies identified in Example 6 that define two different epitope binding groups and have distinct ligand blocking properties. […] In addition, the small molecule antagonist cyclic RGD (cRGD; Creative-Peptides, Shirley, New York, 11967, cat. no. CP22175) was tested as a comparator that inhibits α5β1 integrin binding to FN by competing at the ligand binding pocket.
Description of the SPR method used: FN protein dissolved in water was manually printed onto the bare gold-coated (thickness 47 nm) PlexArray Nanocapture Sensor Chip (Plexera Bioscience, Seattle, WA) at 40% humidity. The chip was incubated in 80% humidity at 4° C. for overnight and rinsed with 10×PBST (0.1M phosphate buffer, 1.54M NaCl, pH7.4, 0.5% Tween20) for 10 minutes (min), 1×PBST (0.01M phosphate buffer pH7.4, 0.154M NaCl, 0.05% Tween20) for 10 min, and deionized water twice for 10 min. The chip was then blocked with 5% (w/v) non-fat milk in water overnight, and washed with 10×PBST for 10 min, 1×PBST for 10 min, and deionized water twice for 10 min before being dried under a stream of nitrogen prior to use. SPR measurements were performed using PlexArray HT (Plexera Bioscience, Seattle, WA), a high-throughput surface plasmon resonance imaging (SPRi) platform. Collimated light (660 nm) passes through the coupling prism, reflects off the SPR-active gold surface, and is received by the CCD camera. Buffers and samples were injected by a non-pulsatile piston pump into the 30 μL flow cell that was mounted on the coupling prim. […] SPR binding responses (a.u.) were recorded and plotted over time.

[2] = biological target: T1, recombinant mouse α5β1 (rm-α5β1; R&D Systems, cat. no. 7728-A5) (mouse, UniProt P11688 45-999; P09055 21-728); test: ELISA, coated rm-α5β1, supernatant 1:10
T1 construct: bought recombinant heterodimer
Procedure: (§1) Plates were washed 3 times with Wash Buffer (1× Tris Buffered Saline containing 0.05% Tween20), blocked with 2% BSA in 1×TBS (made from 10× Thermo Scientific Blocker BSA (10×) in TBS; Thermo Fisher Scientific, Waltham, MA, cat. no. 37520) for 2 hours at room temperature (RT) then incubated with hybridoma supernatants diluted 1:10 with Standard Diluent (2% BSA, 1×TBS, 0.05% Tween20). […] Absorbance 450 nm was measured.

[3] = biological target: T2, purified recombinant human α5β1 integrin heterodimer, 6×His tagged (rh-α5β1); Acro Biosystems, cat. no. … (human, UniProt P08648 42-995; P05556 21-728); test: ELISA, inhibition of rh-α5β1-His binding to coated FN, purified hybridoma mAb
T2 construct: bought recombinant heterodimer; also called rh-α5β1-6×His tagged protein; His-tagged-α5β1
Procedure: Immulon4 HBX ELISA 96-well plates were coated with FN by incubation overnight at 4° C. with 2.5 μg/mL human FN (R&D Systems, Minneapolis, MN 55413, cat. no. 1918-FN) in 1×PBS (0.01M phosphate buffer and 0.154M NaCl, pH 7.4). Plates were then washed 3 times with Wash Buffer (1× Tris Buffered Saline containing 0.05% Tween20), blocked with 2% BSA in 1×TBS for 2 hours at room temperature (RT). […] Isotype control antibody (Control Ab; Ms IgG2a EMD Millipore Corp, Billerica, MA, cat. no. PP102) was used to normalize data across different assay runs. […] Following 1 hour at RT, the wells were washed 3 times, incubated with biotinylated Anti-6×His-Tag Ab (Invitrogen, Carlsbad, CA, cat. no. MAI-21315-BTIN) at 1:1000 in Standard Diluent for 1 hour, washed 3 times, incubated for 30 minutes with poly-HRP Streptavidin (Thermo Fisher Scientific, Waltham, MA, cat. no. N200), washed 4 times, incubated with TMB substrate (Thermo Fisher Scientific, Waltham, MA, cat. no. N301) for 2-5 minutes, followed by addition of ELISA Stop Solution (Invitrogen, Carlsbad, CA, cat. no. SS04). Absorbance 450 nm was measured. Data points were normalized to the isotype Control Ab values at each concentration and reported as % Absorbance 450 nm normalized to Control Ab. Non-linear regression analysis was used to fit curves (4-parameter) to the data using GraphPad Prism version 9.0.2 (GraphPad Software, LLC, San Diego, CA).

[4] = biological target: T3, recombinant human α5β1 integrin (rh-α5β1; R&D Systems, cat. no. 3230-A5) (human, UniProt P08648 42-995; P05556 21-728); test: ELISA, coated rh-α5β1, supernatant 1:10
T3 construct: bought recombinant heterodimer
Procedure: as §1

[5] = biological target: T2, purified recombinant human α5β1 …; test: BLI (Octet), supernatant mAb on anti-mouse IgG Fc sensor, 20 nM rh-α5β1
Text: Anti-Mouse IgG Fc biosensors were used to load each clone supernatant. Assay steps were as follows: Sensor Check (30s)-->Load Ab (700s)-->Quench (480s)-->Baseline(480s)-->Ab Assoc. (600s)-->Dissoc. (600s).

[6] = biological target: T4, recombinant human α4β1 integrin (rh-α4β1; R&D Systems, cat. no. 5668-A4) (human, UniProt P13612 34-977; P05556 21-728); test: ELISA, coated rh-α4β1, supernatant 1:10
T4 construct: bought recombinant heterodimer
T4 sequence (P13612 34-977 limits assumed, form in doubt, chain 1 of 2): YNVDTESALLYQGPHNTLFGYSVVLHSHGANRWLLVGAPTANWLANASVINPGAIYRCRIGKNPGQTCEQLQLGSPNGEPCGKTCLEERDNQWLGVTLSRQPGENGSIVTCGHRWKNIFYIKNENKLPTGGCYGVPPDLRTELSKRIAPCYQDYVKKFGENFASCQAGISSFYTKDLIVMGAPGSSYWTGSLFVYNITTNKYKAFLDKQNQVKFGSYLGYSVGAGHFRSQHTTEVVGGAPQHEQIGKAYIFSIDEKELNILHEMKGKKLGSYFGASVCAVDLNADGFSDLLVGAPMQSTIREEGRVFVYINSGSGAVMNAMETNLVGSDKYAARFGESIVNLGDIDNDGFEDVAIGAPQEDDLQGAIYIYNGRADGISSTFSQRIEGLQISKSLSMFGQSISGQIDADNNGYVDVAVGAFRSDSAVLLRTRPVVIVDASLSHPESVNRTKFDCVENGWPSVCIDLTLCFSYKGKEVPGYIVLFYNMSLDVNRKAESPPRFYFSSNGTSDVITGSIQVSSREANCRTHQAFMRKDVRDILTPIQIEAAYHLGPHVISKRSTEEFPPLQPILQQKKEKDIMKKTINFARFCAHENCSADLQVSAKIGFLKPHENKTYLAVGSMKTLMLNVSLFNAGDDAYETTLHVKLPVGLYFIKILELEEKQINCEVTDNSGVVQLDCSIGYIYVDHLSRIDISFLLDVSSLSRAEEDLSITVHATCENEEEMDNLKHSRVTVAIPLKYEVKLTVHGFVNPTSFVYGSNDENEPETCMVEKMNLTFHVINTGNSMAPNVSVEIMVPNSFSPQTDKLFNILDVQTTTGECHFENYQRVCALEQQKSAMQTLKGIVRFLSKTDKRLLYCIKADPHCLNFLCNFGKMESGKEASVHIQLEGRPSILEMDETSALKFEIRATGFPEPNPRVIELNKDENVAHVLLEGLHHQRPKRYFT
T4 sequence (P05556 21-728 limits assumed, form in doubt, chain 2 of 2): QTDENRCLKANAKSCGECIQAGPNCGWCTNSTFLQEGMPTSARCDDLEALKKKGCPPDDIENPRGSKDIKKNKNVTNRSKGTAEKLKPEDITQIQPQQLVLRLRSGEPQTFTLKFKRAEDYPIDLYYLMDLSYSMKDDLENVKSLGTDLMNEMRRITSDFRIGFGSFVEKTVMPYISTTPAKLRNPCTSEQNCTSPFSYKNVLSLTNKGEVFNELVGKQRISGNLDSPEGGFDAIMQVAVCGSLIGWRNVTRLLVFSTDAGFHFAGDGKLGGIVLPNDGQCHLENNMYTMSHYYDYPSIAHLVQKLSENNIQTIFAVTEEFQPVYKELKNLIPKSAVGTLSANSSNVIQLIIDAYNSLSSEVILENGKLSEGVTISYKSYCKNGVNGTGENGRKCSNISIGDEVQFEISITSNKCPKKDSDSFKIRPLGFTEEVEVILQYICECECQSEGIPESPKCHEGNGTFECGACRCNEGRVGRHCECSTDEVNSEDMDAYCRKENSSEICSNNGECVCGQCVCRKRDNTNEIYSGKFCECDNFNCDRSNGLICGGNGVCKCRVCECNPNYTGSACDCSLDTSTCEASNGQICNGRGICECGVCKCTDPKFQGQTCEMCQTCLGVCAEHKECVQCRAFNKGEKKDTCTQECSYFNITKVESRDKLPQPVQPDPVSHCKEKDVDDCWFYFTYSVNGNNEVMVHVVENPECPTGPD

T3 sequence (P08648 42-995 limits assumed, form in doubt, chain 1 of 2): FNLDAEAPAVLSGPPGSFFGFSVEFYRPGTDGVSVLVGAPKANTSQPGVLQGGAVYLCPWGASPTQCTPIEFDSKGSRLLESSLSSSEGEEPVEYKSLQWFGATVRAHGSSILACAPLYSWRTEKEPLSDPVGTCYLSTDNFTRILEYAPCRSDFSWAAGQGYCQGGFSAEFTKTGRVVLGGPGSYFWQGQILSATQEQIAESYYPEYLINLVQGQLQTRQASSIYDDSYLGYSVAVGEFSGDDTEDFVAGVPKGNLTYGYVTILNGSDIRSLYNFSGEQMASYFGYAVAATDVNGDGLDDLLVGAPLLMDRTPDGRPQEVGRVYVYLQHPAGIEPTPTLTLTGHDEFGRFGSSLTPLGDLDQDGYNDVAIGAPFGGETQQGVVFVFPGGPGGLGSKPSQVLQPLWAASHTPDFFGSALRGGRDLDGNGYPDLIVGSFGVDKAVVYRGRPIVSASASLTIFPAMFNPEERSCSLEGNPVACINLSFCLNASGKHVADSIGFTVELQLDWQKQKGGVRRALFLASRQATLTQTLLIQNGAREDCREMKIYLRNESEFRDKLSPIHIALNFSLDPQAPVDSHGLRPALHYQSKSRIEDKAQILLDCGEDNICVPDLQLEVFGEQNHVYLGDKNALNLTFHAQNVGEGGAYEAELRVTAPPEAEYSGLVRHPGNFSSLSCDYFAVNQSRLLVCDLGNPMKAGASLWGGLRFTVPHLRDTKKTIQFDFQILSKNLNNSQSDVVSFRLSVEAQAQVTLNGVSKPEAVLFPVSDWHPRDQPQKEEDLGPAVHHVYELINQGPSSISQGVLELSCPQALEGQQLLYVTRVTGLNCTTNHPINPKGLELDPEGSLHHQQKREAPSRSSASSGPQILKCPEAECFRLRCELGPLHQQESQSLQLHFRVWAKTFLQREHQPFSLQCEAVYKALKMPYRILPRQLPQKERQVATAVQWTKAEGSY
T3 sequence (P05556 21-728 limits assumed, form in doubt, chain 2 of 2): as the sequence (P05556 21-728 limits assumed, form in doubt, chain 2 of 2) above
T2 sequence (P08648 42-995 limits assumed, form in doubt, chain 1 of 2): as the sequence (P08648 42-995 limits assumed, form in doubt, chain 1 of 2) above
T2 sequence (P05556 21-728 limits assumed, form in doubt, chain 2 of 2): as the sequence (P05556 21-728 limits assumed, form in doubt, chain 2 of 2) above
T1 sequence (P11688 45-999 limits assumed, form in doubt, chain 1 of 2): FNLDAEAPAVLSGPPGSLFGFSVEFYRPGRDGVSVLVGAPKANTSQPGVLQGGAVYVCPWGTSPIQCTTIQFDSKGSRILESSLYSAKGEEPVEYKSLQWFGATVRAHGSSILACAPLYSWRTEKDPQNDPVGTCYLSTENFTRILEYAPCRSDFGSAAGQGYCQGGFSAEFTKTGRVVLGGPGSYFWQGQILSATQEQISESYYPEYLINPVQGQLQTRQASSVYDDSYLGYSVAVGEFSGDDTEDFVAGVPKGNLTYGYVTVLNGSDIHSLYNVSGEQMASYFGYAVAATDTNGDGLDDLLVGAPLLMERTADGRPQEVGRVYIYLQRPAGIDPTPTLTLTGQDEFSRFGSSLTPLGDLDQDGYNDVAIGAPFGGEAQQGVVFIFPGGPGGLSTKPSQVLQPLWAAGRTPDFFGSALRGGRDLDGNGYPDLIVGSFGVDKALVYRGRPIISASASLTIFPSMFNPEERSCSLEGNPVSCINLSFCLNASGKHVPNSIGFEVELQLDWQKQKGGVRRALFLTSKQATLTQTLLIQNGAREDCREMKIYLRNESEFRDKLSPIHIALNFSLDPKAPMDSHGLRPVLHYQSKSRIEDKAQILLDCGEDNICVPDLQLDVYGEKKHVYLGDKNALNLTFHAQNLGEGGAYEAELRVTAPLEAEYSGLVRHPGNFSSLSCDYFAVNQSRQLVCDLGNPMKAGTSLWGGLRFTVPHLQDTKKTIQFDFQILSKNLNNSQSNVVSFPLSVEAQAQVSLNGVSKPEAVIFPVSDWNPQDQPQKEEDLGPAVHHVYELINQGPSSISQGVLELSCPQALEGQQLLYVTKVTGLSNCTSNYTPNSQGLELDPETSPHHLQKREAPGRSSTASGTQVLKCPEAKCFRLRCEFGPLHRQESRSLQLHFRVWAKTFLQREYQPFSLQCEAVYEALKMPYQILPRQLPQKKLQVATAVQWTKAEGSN
T1 sequence (P09055 21-728 limits assumed, form in doubt, chain 2 of 2): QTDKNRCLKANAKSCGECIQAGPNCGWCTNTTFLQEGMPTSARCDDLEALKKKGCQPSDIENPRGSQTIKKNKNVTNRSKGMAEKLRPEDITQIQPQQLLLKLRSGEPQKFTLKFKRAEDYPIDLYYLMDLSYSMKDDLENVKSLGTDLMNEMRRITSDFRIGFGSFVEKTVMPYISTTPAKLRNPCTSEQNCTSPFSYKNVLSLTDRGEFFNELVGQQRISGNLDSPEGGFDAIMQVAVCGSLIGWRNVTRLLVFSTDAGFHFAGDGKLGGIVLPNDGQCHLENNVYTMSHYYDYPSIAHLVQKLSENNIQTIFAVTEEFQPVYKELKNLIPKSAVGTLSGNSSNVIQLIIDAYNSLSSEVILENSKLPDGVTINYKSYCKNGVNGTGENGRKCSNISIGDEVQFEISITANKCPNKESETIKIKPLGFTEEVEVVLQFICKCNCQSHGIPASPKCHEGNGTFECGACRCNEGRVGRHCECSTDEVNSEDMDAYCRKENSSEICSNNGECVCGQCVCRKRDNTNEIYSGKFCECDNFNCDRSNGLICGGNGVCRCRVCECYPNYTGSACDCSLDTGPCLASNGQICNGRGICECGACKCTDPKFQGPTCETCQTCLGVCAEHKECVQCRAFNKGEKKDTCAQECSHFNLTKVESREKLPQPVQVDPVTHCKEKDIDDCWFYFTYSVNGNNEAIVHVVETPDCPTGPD

| Molecule | cellular detachment (cell rounding) of U87MG cells from FN coated plates (U87MG cells) | effect on dissociation of rh-α5β1 protein bound to FN (SPR response) [1] | Absorbance 450 nm [2] | % Max Inhibition [3] [%] | Absorbance 450 nm [4] | Kd [5] [nM] | koff [5] [s⁻¹] | kon [5] [M⁻¹ s⁻¹] | Absorbance 450 nm [6] |
| --- | --- | --- | --- | --- | --- | --- | --- | --- | --- |
| cyclic RGD [cRGD, reference compound] | did not show significant cell detachment | did not have any discernable effect on the dissociation rate |  |  |  |  |  |  |  |
| B1 |  |  | 0.0647 | 93 | 2.31 | 2.32 | 0.00161 | 693000 | 0.0683 |
| B2 |  |  | 0.0682 | 41 | 2.05 | 0.8 | 0.000178 | 222000 | 0.0713 |
| B3 |  |  | 0.0563 | 60 | 2.03 | 1.3 | 0.000314 | 242000 | 0.0617 |
